Data: paper PMC4807065

Molecular target: large catalase (CAT) from Aspergillus terreus MTCC 6324 (Aspergillus terreus MTCC 6324)
Experiment: SEC; HiPrep Sephacryl S-300 HR column, 50 mM sodium phosphate buffer pH 7.5; native mass against gel filtration standards (29-669 kDa), compared with the subunit mass from SDS-PAGE

stoichiometry N: 4
Substance: large catalase (CAT) from Aspergillus terreus MTCC 6324 (enzyme)
